Tests used:
[1] = molecular target: LHCGR-Q303P/E305P (double proline mutant of the human lutropin/choriogonadotropin receptor), GFP fusion (human) (UniProt P22888)
[2] = molecular target: LHCGR-delExon10 (human lutropin/choriogonadotropin receptor lacking the exon10-encoded segment), GFP fusion (human) (UniProt P22888)

EC50 of cAMP accumulation (radioimmunoassay) in transiently transfected HEK 293 cells, stimulation with hLH for 1 h at 37°C; not significantly different from wild type (0.13 IU/ml) [1] | EC50 of cAMP accumulation (radioimmunoassay) in transiently transfected HEK 293 cells, stimulation with hLH for 1 h at 37°C; significantly right-shifted against wild type (0.13 IU/ml) [2] | EC50 of cAMP accumulation (radioimmunoassay) in transiently transfected HEK 293 cells, stimulation with hCG for 1 h at 37°C; significantly right-shifted against wild type (0.15 IU/ml) [1] | EC50 of cAMP accumulation (radioimmunoassay) in transiently transfected HEK 293 cells, stimulation with hCG for 1 h at 37°C; wild-type-like (wild type 0.15 IU/ml) [2] | Substance
0.24 IU/ml | 0.51 IU/ml |  |  | human lutropin (hLH) (from UniProt P01215 25-116; P01229 21-141) (ligand)
 |  | 0.85 IU/ml | 0.18 IU/ml | human choriogonadotropin (hCG) (from UniProt P01215 25-116; P0DN86 21-165) (ligand)

Source: publication PMC4585211
